Assay results taken from paper PMC509406, “Emerin Caps the Pointed End of Actin Filaments: Evidence for an Actin Cortical Network at the Nuclear Inner Membrane” (PLoS Biology, 2004).
Values joined by “and” are separate entries in the source; they are usually repeats but may differ in a detail not shown here. Identical values can stand only once.

Columns and labels:
[1] = molecular target: T1, purified actin (F-actin or G-actin; species not told for these experiments) ( (purified chicken and rabbit …, UniProt P68135 1-377); experiment: co-sedimentation; actin polymerized in KMEI buffer, incubated 30 min with recombinant emerin (4 μM in text and methods, 2 μM in the legend), pelleted at 100,000g for 1 h; SDS-PAGE, Coomassie blue; conditions: both partners purified
[2] = molecular target: T2, rabbit actin (Cytoskeleton, catalog #AKL95) (rabbit, UniProt P68135 1-377); experiment: pointed-end elongation of gelsolin–actin seeds (pyrene–actin) against emerin concentration; gelsolin–actin dimers (10 nM), 2 μM actin, 0 to 2 μM wild-type emerin 1–222; apparent Kd from the reduction of the rate; n = 12; conditions: both partners purified
[3] = molecular target: T2, rabbit actin (Cytoskeleton, catalog …); experiment: depolymerization of actin filaments grown from gelsolin–actin seeds against emerin concentration; filaments from 2 μM actin and gelsolin–actin seeds diluted 10-fold to 0.2 μM actin with 0–2 μM emerin 1–222; apparent Kd; n = 6; conditions: both partners purified
[4] = molecular target: T2, rabbit actin (Cytoskeleton, catalog …); experiment: pyrene–actin polymerization rate against emerin concentration; 2 μM rabbit actin with 5% pyrene–actin; emerin 0.1 to 4.4 μM added just prior to polymerization; R/cR; equilibrium affinity from activity; conditions: both partners purified
[5] = molecular target: T2, rabbit actin (Cytoskeleton, catalog …); experiment: cell-based or functional assay
[6] = molecular target: T1, purified actin (F-actin or G-actin; …); experiment: F-actin column (affinity determination); F-actin column used to determine the affinity of F-actin for emerin; n = 8; conditions: both partners purified

B1: wild-type emerin (residues 1–222), the full nucleoplasmic domain (domain or fragment)
chain: MDNYADLSDTELTTLLRRYNIPHGPVVGSTRRLYEKKIFEYETQRRRLSPPSSSAASSYSFSDLNSTRGDADMYDLPKKEDALLYQSKGYNDDYYEESYFTTRTYGEPESAGPSRAVRQSVTSFPDADAFHHQVHDDDLLSSSEEECKDRERPMYGRDSAYQSITHYRPVSASRSSLDLSYYPTSSSTSFMSSSSSSSSWLTRRAIRPENRAPGAGLGQDRQ
notes: emerin, residues 1–222, the entire nucleoplasmic domain, lacking the transmembrane domain; also called emr; WT; source: expressed in bacteria and purified
[1]
  stoichiometry N: ~300 actin monomers per emerin molecule
[2]
  Kd: 430 nM and 300 to 500 nM
[3]
  Kd: 380 nM and 350 to 450 nM
[4]
  Kd: 420 nM
[5]
  critical concentration for pointed-end growth (5 nM gelsolin–actin seeds, 625 nM emerin, 16 h at room temperature): 2.3 to 2.7 fold
  rate of depolymerization of filaments grown from gelsolin–actin seeds, diluted to 0.2 μM actin, emerin 0–2 μM: ≤ 8 fold
  rate of depolymerization of preformed filaments capped at the barbed end with capping protein (CapZ), diluted into 0.2 μM actin (data not shown): 10 fold
  rate of pyrene–actin polymerization (R/cR), emerin 0.1 to 4.4 μM, 2 μM actin: 4 fold
[6]
  Kd: 480 nM and 300 to 500 nM

B2: emerin (residues 1–222) alanine substitution mutant m196 (domain or fragment)
chain: MDNYADLSDTELTTLLRRYNIPHGPVVGSTRRLYEKKIFEYETQRRRLSPPSSSAASSYSFSDLNSTRGDADMYDLPKKEDALLYQSKGYNDDYYEESYFTTRTYGEPESAGPSRAVRQSVTSFPDADAFHHQVHDDDLLSSSEEECKDRERPMYGRDSAYQSITHYRPVSASRSSLDLSYYPTSSSTSFMSSSSAASSWLTRRAIRPENRAPGAGLGQDRQ
[5]
  rate of pyrene–actin polymerization, 1 μM mutant, 2.0 μM G-actin, against wild-type emerin: ~50 % of wild-type emerin
